One series concerns the target T1, P54nrb-HIS (UniProt Q15233).
T1 sequence: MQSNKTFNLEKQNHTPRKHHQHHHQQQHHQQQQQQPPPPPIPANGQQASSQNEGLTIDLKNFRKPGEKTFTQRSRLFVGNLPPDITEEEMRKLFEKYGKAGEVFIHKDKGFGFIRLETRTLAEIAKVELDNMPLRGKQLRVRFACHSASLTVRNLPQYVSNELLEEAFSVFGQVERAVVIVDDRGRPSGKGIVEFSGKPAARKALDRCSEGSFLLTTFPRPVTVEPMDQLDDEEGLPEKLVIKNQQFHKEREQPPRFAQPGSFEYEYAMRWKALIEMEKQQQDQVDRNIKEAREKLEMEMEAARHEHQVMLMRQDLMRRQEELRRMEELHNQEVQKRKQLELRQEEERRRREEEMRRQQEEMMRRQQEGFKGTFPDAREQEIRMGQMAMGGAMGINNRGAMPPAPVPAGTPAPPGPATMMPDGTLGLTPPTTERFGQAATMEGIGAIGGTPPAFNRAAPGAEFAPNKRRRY
Description: competition FP. The note with it: 3-10-3 cEt gap-mer; BRET: 1X binding buffer (0.1 M potassium acetate, 20 mM Tris pH 7.5, 1 mM EDTA, 0.01% NP-40), room temperature, 15 min; FP in the same buffer; c-Jun in OptiMEM …. On the technique in general: Bioluminescence resonance energy transfer reports proximity on the nanometre scale.

For series [1], the target named is T2, NLuc-La dR1/R2 internal_change (UniProt P05455).
T2 sequence: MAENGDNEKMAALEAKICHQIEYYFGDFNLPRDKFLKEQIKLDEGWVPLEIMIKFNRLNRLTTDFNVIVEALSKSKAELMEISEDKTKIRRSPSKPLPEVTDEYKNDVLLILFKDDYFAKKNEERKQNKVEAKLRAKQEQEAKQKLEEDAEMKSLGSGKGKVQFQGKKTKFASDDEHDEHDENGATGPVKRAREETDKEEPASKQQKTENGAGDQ
Put plainly: BRET. The settings on record: PS; 5-10-5 (S)-cEt gap-mer; BRET: 1X binding buffer (0.1 M potassium acetate, 20 mM Tris pH 7.5, 1 mM EDTA, 0.01% NP-40), room temperature, 15 min; FP in the same buffer; c-Jun in OptiMEM ….

Among the data in PMC5003356 are Kd and binding signal (fold lower affinity than full length) values, retold here.

The Kd is a measure of binding affinity in units of concentration. A lower Kd goes with a tighter complex. As to AACATGTCTGCCAGGG [660956], the dissociation constant Kd in the series with P54nrb-HIS worked out at 33 nM.

In the series with P54nrb-HIS, ACCCTGCCACGATGTA [660992] showed a Kd of 95.1 nM.

CCACTGCGCAGGCCAG [660935]: in the series with P54nrb-HIS, the dissociation constant Kd came to 337 nM. Compared with the last sequence, the Kd is about 3.5-fold higher.

CCAGCGGGTGGACTGT [660923] had a Kd in the series with P54nrb-HIS of 38.3 nM.

Regarding CCCTCCCTCCCGCTAG [661121], the equilibrium dissociation constant (Kd) in the series with P54nrb-HIS is 19.5 nM.

With “CTGCTAGCCTCTGGATTTGA [766636 cEt gap-mer]”, in series [1], the binding signal (fold lower affinity than full length) is 50.

For CTGGGAACTGGTCACC [660899], the Kd in the series with P54nrb-HIS came out at 119 nM.

The sequence CTTCTAGCCACTGGCT [661010] came in with a dissociation constant Kd with P54nrb-HIS of 326 nM.

Turning to GGGAGGAGGACAGCTC [660908], the Kd with P54nrb-HIS stood at 4.6 nM.

As for GTTAAGAAGGCTGTCC [661073], in the series with P54nrb-HIS, the Kd came to 260 nM.

In turn, TCAGTCATGGTATAAA [661115] had a Kd in the series with P54nrb-HIS of 86.9 nM.

In turn, TCCACAGAGCGGACTG [660965] came in with an equilibrium dissociation constant (Kd) with P54nrb-HIS of 310 nM.

The sequence TGAGAAGATCTCCCGG [661103] registered a Kd in the series with P54nrb-HIS of 33.6 nM.
